Test system: MS2 coat protein
Assay: apparent KD of MS2 coat protein; designed switch direction (-1 OFF switch, 1 ON switch): -1; higher = weaker reporter binding
Procedure, shortened: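 Designed RNA switches with common flanks were transcribed on Illumina chips by stalled E. coli RNA polymerase and titrated with SNAP-549-labelled MS2 coat protein, from 0.7 or 1.5 nM doubling to 3 µM, in Tris-HCl pH 7.5 buffer with KCl, MgCl2, BSA, DTT, tRNA and Tween-20. Steps lasted 0.8–1.5 h (lowest) to 10–20 min (highest). Titrations ran without input, with 200 uM small-molecule ligand, or with an oligonucleotide input. Normalised cluster fluorescence was curve-fitted, and apparent KD is the per-design median over clusters.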

[1] = Eterna round: R95, input ligand: FMN 200 uM
[2] = Eterna round: R95, input ligand: microRNA oligo, concentration not stated
[3] = Eterna round: R95, input ligand: none
[4] = input ligand: microRNA oligo, concentration not stated

Sequence	apparent KD of MS2 coat protein [1] [nM]	apparent KD of MS2 coat protein [2] [nM]	apparent KD of MS2 coat protein [3] [nM]	apparent KD of MS2 coat protein (input ligand: FMN 200 uM) [nM]	apparent KD of MS2 coat protein (input ligand: none) [nM]	apparent KD of MS2 coat protein [4] [nM]
UCCUCACAUGAGGAUCACCCAUGUCAGGAUAUGUACCCGAUCAAGUCAGAGAUCGGAAGCAGAAGGGACUGCGG [Larebeti] (puzzle: Exclusion 1)	26.5	70.7	59.2	–	–	–
UCCUCACCUUAGGAUAUCUUGACGGGACUCUCAGGAGAAGGAAGGACAUGAGGAUCACCCAUGUUCAAAACAAC [EX6 B.18] (Eterna round: R97, puzzle: Exclusion 6)	–	–	–	50.2	23.2	–
UCCUGACAUGAGGAUCACCCAUGUUAGGAUAUAACAUUUGACGCGACAGUGUGGAGUGUUAGAAGGGAUGUGGG [-29.5, -26.8 kcal, A 27%] (Eterna round: R97, puzzle: Exclusion 1)	–	–	–	20.5	17.4	–
UCCUGCUGGCGAGGAUAUCCUGUGCGGUUCCGGCUCGUGUCUGUUACAUGAGGAUCACCCAUGUGGGAGAAGGUGUCUGUGGCC [Design 98] (Eterna round: R96, puzzle: Exclusion NG 2)	–	–	–	18.6	20.5	14.1
UCCUGGCGAGGAUAUACAAUGUUAUUCGCGUGUAGUUGGAAACAUGAGGAUCACCCAUGUAGAAGGUGCUACUG [JR_Ex2_Sub025] (Eterna round: R97, puzzle: Exclusion 2)	–	–	–	27.4	23.8	–
UCCUGGUCAGGAUAUUGCAGGUCGUACGCUCUGAGUCUAGGCAAGAAGGGACAUGAGGAUCACCCAUGUGGGCG [Eternabot (L1) Solution 4] (Eterna round: R97, puzzle: Exclusion 4)	–	–	–	406	187	–
UCCUUACAUGAGGAUCACCCAUGUCAGGAUAUCUCCACACUGCGCUUGCGCAGUGUAUAGAGAAGGGACAGGCU [JL ViennaUCT Aner mod 6] (puzzle: Exclusion 1)	33.4	26.5	35.8	–	–	–
UCCUUACUGGUCAGGAUAUACAUUCGCUACUCCUUGUAGAAGGGACAUGAGGAUCACCCAUGUACGUUACAUCC [alecazam54b] (Eterna round: R97, puzzle: Brourd's mod of Exclusion 4)	–	–	–	22.9	21.6	–
UCCUUACUGGUCAGGAUAUACAUUCGCUACUGGGUGUAGAAGGGACAUGAGGAUCACCCAUGUACGUUACAUCC [alecazam54e] (Eterna round: R97, puzzle: Brourd's mod of Exclusion 4)	–	–	–	19.3	23.8	–
UCGACUACAGUAGGAUAUGUAGGAUAUGUGGUUGAGGAUCACCCAACCACUUCAACGACAGAAGGACAGAAGGACUGACAACGU [pwkr exNG2 2xFMN 1xF5.3] (Eterna round: R96, puzzle: Exclusion NG 2)	–	–	–	16.8	16.5	14.8
UCGACUAGAGGAUAUACAUGAGGAUCACCCAUGUUGGUAUCACGAAUUCAACCAACUCGUAGAAGGCUGACGAC [Eternabot (L1) Solution 98] (Eterna round: R97, puzzle: Exclusion 3)	–	–	–	24.2	24.9	–
UCGAGGUCAGGAUAUACAUGAGGAUCACCCAUGUGGAAGUAAGGUAGGAGAAGAGUAGGUAGAAGGGACGAGGG [JR_Exclu3_Sub051] (puzzle: Exclusion 3)	38.2	37.9	46.3	–	–	–
UCGAGGUCAGGAUAUACAUGAGGAUCACCCAUGUGGAGAUAAGGUAGGAAAAGAGUAGGUAGAAGGGACGAGAG [JR_Exclu3_Sub048] (puzzle: Exclusion 3)	61.4	40.6	57.6	–	–	–
UCGAGGUCAGGAUAUACAUGAGGAUCACCCAUGUUGAGAGAAGGUAGGAAAAGAGUAGGUAGAAGGGACGAGAG [JR_Exclu3_Sub046] (puzzle: Exclusion 3)	–	26.1	–	–	–	–

Source: the supplement of paper PMC9170038
